Source: patent US20200102553A1

Molecular target: membrane-tethered Cre fusion: signal peptide, flag tag, CD8 transmembrane domain, GzB cleavage site, Cre recombinase (UniProt P01732)
Test: cell-based or functional assay

Granzyme B (GzB) (from UniProt P10144 21-247) (enzyme)
reporter inversion by released Cre, qPCR: 3 fold
